Target: McTnI_(29–211), mouse cardiac TnI with the NH2-terminal extension removed (mouse, UniProt P48787 29-211)
Test: ELISA

Chain of McTnI_(29–211), mouse cardiac TnI with the NH2-terminal extension removed (P48787 29-211): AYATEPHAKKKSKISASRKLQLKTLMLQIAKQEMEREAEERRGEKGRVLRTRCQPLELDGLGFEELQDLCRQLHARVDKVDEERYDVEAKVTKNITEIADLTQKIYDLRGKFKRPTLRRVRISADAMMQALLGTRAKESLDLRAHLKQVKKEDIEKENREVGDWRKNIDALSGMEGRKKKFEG

B1: chicken fast TnC (natural protein)
chain: not shown
binding result: binds
